The target in assay [1] is Recombinant mouse fibulin-5 (mouse) (UniProt Q9WVH9). Description: SPR.
The target of assay [2] is Recombinant mouse fibulin-2 (mouse) (UniProt P37889). Kind of assay: SPR. (In SPR one partner is held on a chip, and binding of the other changes the refractive index at the surface.)

The source of these data is paper PMC2800831.

UniProt Q9WVH9, sequence (Q9WVH9 24-448): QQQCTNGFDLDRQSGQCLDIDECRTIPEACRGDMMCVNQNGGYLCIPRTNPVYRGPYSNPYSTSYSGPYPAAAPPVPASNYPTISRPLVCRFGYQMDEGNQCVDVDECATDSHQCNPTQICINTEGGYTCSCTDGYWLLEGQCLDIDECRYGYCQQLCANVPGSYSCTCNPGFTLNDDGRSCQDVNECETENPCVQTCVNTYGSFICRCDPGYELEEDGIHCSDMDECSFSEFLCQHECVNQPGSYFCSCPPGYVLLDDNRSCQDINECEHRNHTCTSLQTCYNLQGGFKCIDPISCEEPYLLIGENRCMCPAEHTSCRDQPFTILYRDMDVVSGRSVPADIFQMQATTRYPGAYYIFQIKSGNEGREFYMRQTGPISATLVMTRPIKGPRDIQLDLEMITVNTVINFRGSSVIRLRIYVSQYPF
UniProt P37889, sequence (P37889 27-1221): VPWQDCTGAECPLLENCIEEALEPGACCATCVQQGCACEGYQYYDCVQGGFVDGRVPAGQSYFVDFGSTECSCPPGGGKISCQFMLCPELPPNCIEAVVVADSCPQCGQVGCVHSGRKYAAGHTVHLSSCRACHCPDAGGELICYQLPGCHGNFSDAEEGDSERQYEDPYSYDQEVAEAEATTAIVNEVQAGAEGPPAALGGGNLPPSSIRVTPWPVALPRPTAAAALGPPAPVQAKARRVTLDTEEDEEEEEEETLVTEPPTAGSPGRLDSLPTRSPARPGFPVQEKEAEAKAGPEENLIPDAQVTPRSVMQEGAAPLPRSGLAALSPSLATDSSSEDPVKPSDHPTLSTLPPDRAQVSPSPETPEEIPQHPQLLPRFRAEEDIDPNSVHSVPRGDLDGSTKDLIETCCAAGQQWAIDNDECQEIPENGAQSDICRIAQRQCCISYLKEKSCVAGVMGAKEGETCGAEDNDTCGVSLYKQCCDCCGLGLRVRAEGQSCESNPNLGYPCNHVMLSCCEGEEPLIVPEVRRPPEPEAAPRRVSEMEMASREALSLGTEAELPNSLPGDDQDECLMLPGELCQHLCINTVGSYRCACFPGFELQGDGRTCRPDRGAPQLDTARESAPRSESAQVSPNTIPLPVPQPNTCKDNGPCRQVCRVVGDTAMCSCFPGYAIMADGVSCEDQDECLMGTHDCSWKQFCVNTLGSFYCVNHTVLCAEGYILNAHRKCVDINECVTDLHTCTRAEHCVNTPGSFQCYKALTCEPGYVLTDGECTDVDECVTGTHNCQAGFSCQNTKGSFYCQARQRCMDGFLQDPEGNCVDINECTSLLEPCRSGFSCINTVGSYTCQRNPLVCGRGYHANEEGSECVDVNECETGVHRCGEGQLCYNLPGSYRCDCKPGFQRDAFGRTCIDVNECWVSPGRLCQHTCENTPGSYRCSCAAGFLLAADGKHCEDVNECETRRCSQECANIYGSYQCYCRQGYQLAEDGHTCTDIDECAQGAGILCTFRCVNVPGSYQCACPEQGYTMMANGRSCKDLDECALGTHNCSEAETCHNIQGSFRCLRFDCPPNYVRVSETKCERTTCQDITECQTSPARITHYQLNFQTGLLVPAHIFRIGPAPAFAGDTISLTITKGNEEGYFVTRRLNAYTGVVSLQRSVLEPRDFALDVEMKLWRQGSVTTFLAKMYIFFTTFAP

With “Recombinant mouse fibulin-2 (from UniProt P37889 27-1221) (natural protein)”, the Kd in assay [1] stood at 0.1 µM.

On to “Recombinant mouse fibulin-5 (from UniProt Q9WVH9 24-448) (natural protein)”, for which the Kd in assay [2] worked out at 1.65 µM.

The term Kd denotes a measure of binding affinity in units of concentration.
